From patent publication US20100092497A1, “METHODS OF IMMUNE OR HAEMATOLOGICAL ENHANCEMENT, INHIBITING TUMOUR FORMATION OR GROWTH, AND TREATING OR PREVENTING CANCER” (priority 2006, published 2010)

Assays:
[1] = system: EL-4 T cell thymic lymphoma; test: EL-4 tumour challenge in mice fed experimental diets (tumour growth, rejection, response to paclitaxel); assay type: in vivo, C57BL/6 mice; conditions: for tumour response after paclitaxel: paclitaxel 30 mg/Kg i.p. at ~0.6 cm; for rank of efficacy in sensitising tumours to paclitaxel: diet 20 g Lf per 2.4 Kg plus paclitaxel 30 mg/Kg
EL-4 target cells = test: Anti-tumour cytolytic activity of splenocytes (CTL assay); assay type: cell-based, mouse; conditions: for increase in anti-tumour cytolytic activity of splenocytes compared to control mice: Example 1, day 77; for increase in anti-tumour cytolytic activity of splenocytes: Example 2, after paclitaxel
Description: Splenocytes were harvested 28 days following tumour cell injection, as specified. They were incubated at 37° C. with EL-4 target cells in graded E:T ratios in 96-well round-bottom plates. After a 4-hour incubation, 50 μl of supernatant was collected, and lysis was measured using the Cyto Tox 96 Assay Kit (Promega, Madison, Wis., USA). Background controls for non-specific target and effector cell lysis were included. After background subtraction, percentage of cell lysis was calculated using the formula: 100×(experimental-spontaneous effector-spontaneous target/maximum target-spontaneous target).

IL-18 = conditions: as reported in WO 03/099323; cited from earlier work
[2] = 20 g Lf per 2.4 Kg diet in combination with paclitaxel treatment

B1: Fe-saturated Lf: Bovine lactoferrin of ~100% Fe saturation prepared with ferric nitrilo-triacetate (protein, UniProt P24627 20-708, looked up)
Lactotransferrin: APRKNVRWCTISQPEWFKCRRWQWRMKKLGAPSITCVRRAFALECIRAIAEKKADAVTLDGGMVFEAGRDPYKLRPVAAEIYGTKESPQTHYYAVAVVKKGSNFQLDQLQGRKSCHTGLGRSAGWIIPMGILRPYLSWTESLEPLQGAVAKFFSASCVPCIDRQAYPNLCQLCKGEGENQCACSSREPYFGYSGAFKCLQDGAGDVAFVKETTVFENLPEKADRDQYELLCLNNSRAPVDAFKECHLAQVPSHAVVARSVDGKEDLIWKLLSKAQEKFGKNKSRSFQLFGSPPGQRDLLFKDSALGFLRIPSKVDSALYLGSRYLTTLKNLRETAEEVKARYTRVVWCAVGPEEQKKCQQWSQQSGQNVTCATASTTDDCIVLVLKGEADALNLDGGYIYTAGKCGLVPVLAENRKSSKHSSLDCVLRPTEGYLAVAVVKKANEGLTWNSLKDKKSCHTAVDRTAGWNIPMGLIVNQTGSCAFDEFFSQSCAPGADPKSRLCALCAGDDQGLDKCVPNSKEKYYGYTGAFRCLAEDVGDVAFVKNDTVWENTNGESTADWAKNLNREDFRLLCLDGTRKPVTEAQSCHLAVAPNHAVVSRSDRAAHVKQVLLHQQALFGKNGKNCPDKFCLFKSETKNLLFNDNTECLAKLGGRPTYEEYLGTEYVTAIANLKKCSTSPLLEACAFLTR
modifications: iron-saturated (holo)
notes: Bovine lactoferrin of ~100% Fe saturation prepared with ferric nitrilo-triacetate
With B1 as the molecule, how does the “tumour response after paclitaxel in mice on Lf diet” value ([1]; Example 1, diet 20 g Lf per 2.4 Kg plus paclitaxel 30 mg/Kg i.p. at tumours ~0.6 cm) read?
Its value is “regressed to less than half their size within two weeks of administering paclitaxel, and disappeared altogether a week later”.

And the “mice that completely rejected the tumour challenge” value ([1]; Example 1, diet with 20 g of Lf per 2.4 Kg, ten mice)?
Its value is “one of ten”.

What about the “mice that completely rejected the tumour challenge” value ([1]; Example 2, 1 g Fe-Lf diet) of the same molecule?
Its value is “one of ten”.

What about the “tumour growth rate compared to control diet” value ([1]; Example 2, 5 and 25 g per 2.4 Kg of diet) of the same molecule?
Its value is “grew significantly (p<0.05 at days 35-49) more slowly”.

And the “mice that completely rejected the tumour challenge” value ([1]; Example 2, 5 g Fe-Lf diet)?
The value was “two of ten”.

And the “mice that completely rejected the tumour challenge” value ([1]; Example 2, 25 g Fe-Lf diet)?
The value was “three of ten”.

What about the “tumour response after paclitaxel” value ([1]; Example 2, 100 g per 2.4 Kg of diet) of the same molecule?
Its value is “regressed over two weeks, but then re-grew”.

What about the “tumour response after paclitaxel” value ([1]; Example 2, all but the 100 g Fe-Lf diet (1, 5, 25 g per 2.4 Kg)) of the same molecule?
Its value is “rapidly regressed and completely disappeared over the following three to four weeks”.

What about the “tumour growth rate compared to control diet” value ([1]; Example 2, lowest and highest doses (1 and 100 g per 2.4 Kg of diet)) of the same molecule?
Its value is “did not differ greatly from that of mice fed the control diet”.

And the “increase in anti-tumour cytolytic activity of splenocytes compared to control mice” value (“increase … to control mice” below) (EL-4 target cells; [2])?
Its value is 6.5 fold.

And the “increase … to control mice” value (EL-4 target cells; the one mouse which completely resisted the tumour challenge)?
Its value is 6 fold.

What about the “increase in anti-tumour cytolytic activity of splenocytes” value (EL-4 target cells; 5 g diet) of the same molecule?
The value was 6.7 fold.

And the “increase in anti-tumour cytolytic activity of splenocytes” value (EL-4 target cells; 25 g diet)?
Its value is 7 fold.

What about the “increase in anti-tumour cytolytic activity of splenocytes” value (EL-4 target cells; 100 g diet) of the same molecule?
The value was 1.5 fold.

And the “increase in anti-tumour cytolytic activity of splenocytes, agent by itself” value (EL-4 target cells; Example 4, high dose vitamin D (45.2 mg/Kg) by itself or Fe-saturated Lf)?
Its value is 1.9 fold.

B2: native Lf: Bovine lactoferrin of greater than 90% purity from Fonterra, native Fe saturation (protein, UniProt P24627 20-708, looked up)
Lactotransferrin: APRKNVRWCTISQPEWFKCRRWQWRMKKLGAPSITCVRRAFALECIRAIAEKKADAVTLDGGMVFEAGRDPYKLRPVAAEIYGTKESPQTHYYAVAVVKKGSNFQLDQLQGRKSCHTGLGRSAGWIIPMGILRPYLSWTESLEPLQGAVAKFFSASCVPCIDRQAYPNLCQLCKGEGENQCACSSREPYFGYSGAFKCLQDGAGDVAFVKETTVFENLPEKADRDQYELLCLNNSRAPVDAFKECHLAQVPSHAVVARSVDGKEDLIWKLLSKAQEKFGKNKSRSFQLFGSPPGQRDLLFKDSALGFLRIPSKVDSALYLGSRYLTTLKNLRETAEEVKARYTRVVWCAVGPEEQKKCQQWSQQSGQNVTCATASTTDDCIVLVLKGEADALNLDGGYIYTAGKCGLVPVLAENRKSSKHSSLDCVLRPTEGYLAVAVVKKANEGLTWNSLKDKKSCHTAVDRTAGWNIPMGLIVNQTGSCAFDEFFSQSCAPGADPKSRLCALCAGDDQGLDKCVPNSKEKYYGYTGAFRCLAEDVGDVAFVKNDTVWENTNGESTADWAKNLNREDFRLLCLDGTRKPVTEAQSCHLAVAPNHAVVSRSDRAAHVKQVLLHQQALFGKNGKNCPDKFCLFKSETKNLLFNDNTECLAKLGGRPTYEEYLGTEYVTAIANLKKCSTSPLLEACAFLTR
For B2, which “rank of efficacy in sensitising tumours to paclitaxel” value ([1]; Example 1) is on record?
Its value is 50% Fe-saturated Lf>native Lf>apoLf.

What about the “increase … to control mice” value (EL-4 target cells; [2]) of the same molecule?
The value was 3.4 fold.

B3: apoLf: Bovine lactoferrin with Fe removed by citric acid chelation (protein, UniProt P24627 20-708, looked up)
Lactotransferrin: APRKNVRWCTISQPEWFKCRRWQWRMKKLGAPSITCVRRAFALECIRAIAEKKADAVTLDGGMVFEAGRDPYKLRPVAAEIYGTKESPQTHYYAVAVVKKGSNFQLDQLQGRKSCHTGLGRSAGWIIPMGILRPYLSWTESLEPLQGAVAKFFSASCVPCIDRQAYPNLCQLCKGEGENQCACSSREPYFGYSGAFKCLQDGAGDVAFVKETTVFENLPEKADRDQYELLCLNNSRAPVDAFKECHLAQVPSHAVVARSVDGKEDLIWKLLSKAQEKFGKNKSRSFQLFGSPPGQRDLLFKDSALGFLRIPSKVDSALYLGSRYLTTLKNLRETAEEVKARYTRVVWCAVGPEEQKKCQQWSQQSGQNVTCATASTTDDCIVLVLKGEADALNLDGGYIYTAGKCGLVPVLAENRKSSKHSSLDCVLRPTEGYLAVAVVKKANEGLTWNSLKDKKSCHTAVDRTAGWNIPMGLIVNQTGSCAFDEFFSQSCAPGADPKSRLCALCAGDDQGLDKCVPNSKEKYYGYTGAFRCLAEDVGDVAFVKNDTVWENTNGESTADWAKNLNREDFRLLCLDGTRKPVTEAQSCHLAVAPNHAVVSRSDRAAHVKQVLLHQQALFGKNGKNCPDKFCLFKSETKNLLFNDNTECLAKLGGRPTYEEYLGTEYVTAIANLKKCSTSPLLEACAFLTR
modifications: iron-free (apo)
notes: Bovine lactoferrin with Fe removed by citric acid chelation
What does the source list for B3?
rank of efficacy in sensitising tumours to paclitaxel ([1]; Example 1): 50% Fe-saturated Lf>native Lf>apoLf; increase in anti-tumour cytolytic activity of splenocytes compared to control mice (EL-4 target cells; [2]): 2.4 fold

B4: bovine lactoferrin: Single-chain iron-binding glycoprotein of 78 kDa present in bovine milk (protein, UniProt P24627 20-708, looked up)
Lactotransferrin: APRKNVRWCTISQPEWFKCRRWQWRMKKLGAPSITCVRRAFALECIRAIAEKKADAVTLDGGMVFEAGRDPYKLRPVAAEIYGTKESPQTHYYAVAVVKKGSNFQLDQLQGRKSCHTGLGRSAGWIIPMGILRPYLSWTESLEPLQGAVAKFFSASCVPCIDRQAYPNLCQLCKGEGENQCACSSREPYFGYSGAFKCLQDGAGDVAFVKETTVFENLPEKADRDQYELLCLNNSRAPVDAFKECHLAQVPSHAVVARSVDGKEDLIWKLLSKAQEKFGKNKSRSFQLFGSPPGQRDLLFKDSALGFLRIPSKVDSALYLGSRYLTTLKNLRETAEEVKARYTRVVWCAVGPEEQKKCQQWSQQSGQNVTCATASTTDDCIVLVLKGEADALNLDGGYIYTAGKCGLVPVLAENRKSSKHSSLDCVLRPTEGYLAVAVVKKANEGLTWNSLKDKKSCHTAVDRTAGWNIPMGLIVNQTGSCAFDEFFSQSCAPGADPKSRLCALCAGDDQGLDKCVPNSKEKYYGYTGAFRCLAEDVGDVAFVKNDTVWENTNGESTADWAKNLNREDFRLLCLDGTRKPVTEAQSCHLAVAPNHAVVSRSDRAAHVKQVLLHQQALFGKNGKNCPDKFCLFKSETKNLLFNDNTECLAKLGGRPTYEEYLGTEYVTAIANLKKCSTSPLLEACAFLTR
Which “intestinal IL-18 levels compared to recombinant human lactoferrin” value (IL-18) does the source give for B4 here?
The value was “lesser increase”.

And the “serum levels of IL-18” value (IL-18)?
The value was “did not increase”.

B5: 50% Fe-saturated Lf: Bovine lactoferrin supplemented with Fe to ~50% saturation (protein, UniProt P24627 20-708, looked up)
Lactotransferrin: APRKNVRWCTISQPEWFKCRRWQWRMKKLGAPSITCVRRAFALECIRAIAEKKADAVTLDGGMVFEAGRDPYKLRPVAAEIYGTKESPQTHYYAVAVVKKGSNFQLDQLQGRKSCHTGLGRSAGWIIPMGILRPYLSWTESLEPLQGAVAKFFSASCVPCIDRQAYPNLCQLCKGEGENQCACSSREPYFGYSGAFKCLQDGAGDVAFVKETTVFENLPEKADRDQYELLCLNNSRAPVDAFKECHLAQVPSHAVVARSVDGKEDLIWKLLSKAQEKFGKNKSRSFQLFGSPPGQRDLLFKDSALGFLRIPSKVDSALYLGSRYLTTLKNLRETAEEVKARYTRVVWCAVGPEEQKKCQQWSQQSGQNVTCATASTTDDCIVLVLKGEADALNLDGGYIYTAGKCGLVPVLAENRKSSKHSSLDCVLRPTEGYLAVAVVKKANEGLTWNSLKDKKSCHTAVDRTAGWNIPMGLIVNQTGSCAFDEFFSQSCAPGADPKSRLCALCAGDDQGLDKCVPNSKEKYYGYTGAFRCLAEDVGDVAFVKNDTVWENTNGESTADWAKNLNREDFRLLCLDGTRKPVTEAQSCHLAVAPNHAVVSRSDRAAHVKQVLLHQQALFGKNGKNCPDKFCLFKSETKNLLFNDNTECLAKLGGRPTYEEYLGTEYVTAIANLKKCSTSPLLEACAFLTR
modifications: ~50% iron-saturated
For B5, which “rank of efficacy in sensitising tumours to paclitaxel” value ([1]; Example 1) is on record?
Its value is 50% Fe-saturated Lf>native Lf>apoLf.

What about the “increase … to control mice” value (EL-4 target cells; [2]) of the same molecule?
Its value is 1.5 fold.
